In the supplement of paper PMC10126150:
± gives the standard deviation of the averaged measurements.

system: ATP; assay: switch fluorescence ratio, 500 uM ATP over buffer (Cy3 cluster intensity, sum of 5 cycles each) (fold (ratio)); higher = stronger signal-on switching upon ATP binding; sequences stand for … in TCGTCGGCAGCGTCAGATGTGTATAAGAGACAGTTTTTTTTTTTTTTTTTTTTTTTTT…TC; conditions: aptamer strand: ATP DNA aptamer (quencher-CACCTGGGGGAGTATTGCGGAGGAAGG + anchor), 100 nM annealed; ATP concentration: 500 uM
Method in brief: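 Cy3-labelled switching-strand clusters on a modified Illumina MiSeq flow-cell were annealed to 100 nM quencher-labelled ATP aptamer and imaged first in selection buffer, then after 15 min with 500 uM ATP at 22 °C. NaOH stripping and re-annealing separated each of five buffer/ATP cycles, and clusters outside 100-1000 RFU were excluded. The fluorescence ratio sums target-cycle Cy3 intensity over buffer-cycle Cy3 intensity per cluster and averages it per switch-domain sequence.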
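Further: ATP exposure 15 min at 22 °C before imaging.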

Sequence | switch fluorescence ratio
CTCCACGGGA | 1.144 ± 0.011
CTCCAGTCAG | 1.51 ± 0.055
CTCCATGGTT | 1.06 ± 0.024
CTCCCTGGGT | 1.401 ± 0.013
CTCCGTTAGT | 3.1 ± 0.065
CTCCTTGTCG | 1.014 ± 0.0077
CTCGAATGTA | 0.994 ± 0.014
CTCGAGGGTA | 1 ± 0.022
CTCGATAGGT | 0.984 ± 0.028
CTCGCGAATT | 1.55 ± 0.49
CTCGCTGCGG | 1.029 ± 0.0073
CTCGGACCTT | 1.19 ± 0.017
CTCGGCGTCG | 1.03 ± 0.019
CTCGGGACGG | 1.005 ± 0.01
CTCGGGCAGG | 1.01 ± 0.032
CTCGGGGCGG | 1.02 ± 0.037
CTCGGGGGAG | 0.991 ± 0.026
CTCGGGGGGA | 1.01 ± 0.018
CTCGGGGGTT | 1.06 ± 0.08
CTCGGTGAGG | 0.991 ± 0.029
CTCGGTGTGG | 1 ± 0.033
CTCGGTTTAG | 1 ± 0.038
CTCGGTTTTT | 0.989 ± 0.035
CTCGTAATTG | 1.09 ± 0.052
CTCGTGAGTT | 1.02 ± 0.021
CTCGTTCGGC | 0.98 ± 0.024

Sequence | switch fluorescence ratio
CTCGTTTATC | 1.03 ± 0.032
CTCTAAGGCT | 1.007 ± 0.009
CTCTACGAGA | 0.983 ± 0.015
CTCTACTCAA | 1.37 ± 0.031
CTCTATAACT | 1.0133 ± 0.00043
CTCTATTGGG | 0.993 ± 0.014
CTCTCAAGGG | 1.088 ± 0.0077
CTCTCGGATG | 1.01 ± 0.011
CTCTCTAGCA | 1.4 ± 0.015
CTCTGAGGAG | 1.04 ± 0.035
CTCTGCAGTG | 3.7 ± 0.5
CTCTGTTTGG | 0.957 ± 0.021
CTCTTATAGT | 0.969 ± 0.019
CTCTTCTGGT | 0.971 ± 0.04
CTCTTGGAGA | 1.01 ± 0.026
CTCTTTGCGA | 1.404 ± 0.0035
CTCTTTGCTT | 1 ± 0.006
CTCTTTTTTT | 0.991 ± 0.014
CTGAAATTTT | 1.0192 ± 0.00063
CTGAACAGTA | 1.02 ± 0.033
CTGAACTATG | 1 ± 0.056
CTGAACTGTG | 0.989 ± 0.11
CTGAATACGT | 1.009 ± 0.0078
CTGAATTGGG | 0.999 ± 0.021
CTGACATGAG | 1 ± 0.032
CTGACCGGGT | 1.014 ± 0.0015

Sequence | switch fluorescence ratio
CTGACTCCAA | 2.94 ± 1.6
CTGACTTTTT | 1.02 ± 0.016
CTGAGCGGCT | 1.05 ± 0.051
CTGAGCTGTG | 0.968 ± 0.035
CTGAGGAAGT | 0.9908 ± 0.0088
CTGAGGCGCC | 1.01 ± 0.056
CTGAGTATGG | 1.01 ± 0.0034
CTGAGTGCGG | 1.02 ± 0.023
CTGAGTTACT | 1.027 ± 0.0025
CTGATATTTG | 0.998 ± 0.022
CTGATCTGTT | 0.998 ± 0.024
CTGATGGGGA | 0.961 ± 0.033
CTGATGTAGC | 1.21 ± 0.049
CTGATTCGGT | 0.9889 ± 0.0027
CTGATTGAGT | 0.9763 ± 0.0063
CTGATTGGGC | 1 ± 0.013
CTGATTTTAT | 0.9856 ± 0.0013
CTGATTTTTT | 1.02 ± 0.045
CTGCAACTAA | 2.27 ± 0.054
CTGCACGGAG | 1.01 ± 0.022
CTGCCTTGTT | 1 ± 0.015
CTGCGGGCCG | 1.004 ± 0.0073
CTGCTAAGTA | 1.01 ± 0.013
CTGCTAGGGG | 1.04 ± 0.034
CTGCTGGGGC | 1.05 ± 0.026
CTGCTTGGTT | 1.001 ± 0.0047

Sequence | switch fluorescence ratio
CTGGAAGCTA | 1.6 ± 0.1
CTGGAAGGGG | 1.04 ± 0.024
CTGGAAGTTT | 0.952 ± 0.044
CTGGATCCTG | 1.02 ± 0.053
CTGGATGGAG | 0.9934 ± 0.0047
CTGGATTAAT | 1.02 ± 0.04
CTGGATTTCA | 0.99 ± 0.027
CTGGCATGTA | 1.0141 ± 0.00098
CTGGCATTAT | 1.21 ± 0.038
CTGGCCTTTG | 0.983 ± 0.036
CTGGCGGATT | 0.985 ± 0.05
CTGGCGGGGA | 1.02 ± 0.025
CTGGCTAGGC | 1 ± 0.014
CTGGCTTTGG | 1.05 ± 0.043
CTGGCTTTTG | 0.999 ± 0.017
CTGGGAACGA | 0.998 ± 0.035
CTGGGACAGT | 0.995 ± 0.034
CTGGGAGGAT | 0.98788 ± 0.0003
CTGGGAGTGG | 1.04 ± 0.013
CTGGGATGTG | 0.98 ± 0.023
CTGGGATTGG | 1.001 ± 0.0039
CTGGGCACGT | 0.997 ± 0.023
CTGGGCAGGT | 1 ± 0.016
CTGGGGATTG | 1.01 ± 0.014
CTGGGGCGTC | 0.993 ± 0.045
CTGGGGGGAG | 1.01 ± 0.024

Sequence | switch fluorescence ratio
CTGGGGGGGA | 1.02 ± 0.022
CTGGGGGGGT | 0.994 ± 0.036
CTGGGGGTA | 0.9889 ± 0.0083
CTGGGGGTGG | 0.964 ± 0.011
CTGGGGTTCG | 1.0213 ± 0.00034
CTGGGTATGA | 1.01 ± 0.024
CTGGGTCCGG | 1.01 ± 0.024
CTGGGTGGGG | 1 ± 0.013
CTGGGTTGGC | 1.0029 ± 0.00048
CTGGGTTTCG | 0.974 ± 0.042
CTGGTAAGGA | 1.017 ± 0.0031
CTGGTATTAT | 1.017 ± 0.0046
CTGGTCCGGC | 1.01 ± 0.078
CTGGTGAGTT | 0.9789 ± 0.0012
CTGGTGGGAG | 0.9857 ± 0.0067
CTGGTGGGTC | 1.01 ± 0.018
CTGGTGTGGA | 1.034 ± 0.0058
CTGGTTAATT | 0.973 ± 0.017
CTGGTTTATA | 0.962 ± 0.027
CTGGTTTCGG | 0.993 ± 0.022
CTGGTTTGAG | 0.97 ± 0.012
CTGTAAGGCC | 0.981 ± 0.015
CTGTAAGGGG | 0.977 ± 0.022
CTGTAATATT | 1.13 ± 0.029
CTGTACGGGG | 1.02 ± 0.054
CTGTATATAG | 1.017 ± 0.0083

Sequence | switch fluorescence ratio
CTGTATGGGT | 0.9978 ± 0.0094
CTGTATGGTA | 1.04 ± 0.045
CTGTATGTCA | 0.99 ± 0.0098
CTGTATTCAC | 1.04 ± 0.033
CTGTCAAGTA | 0.972 ± 0.012
CTGTCGAGTA | 1.13 ± 0.19
CTGTCTGCCG | 1.01 ± 0.017
CTGTGATACT | 2.93 ± 0.22
CTGTGGAGGG | 0.9455 ± 0.0091
CTGTGGGTCC | 0.976 ± 0.034
CTGTGGGTTC | 1 ± 0.016
CTGTGTATGG | 0.989 ± 0.036
CTGTGTCTTT | 0.995 ± 0.072
CTGTTAGAGA | 1.01 ± 0.014
CTGTTAGGGG | 0.967 ± 0.03
CTGTTAGGTA | 1.007 ± 0.01
CTGTTATCGA | 0.9972 ± 0.0029
CTGTTCTGGC | 0.962 ± 0.12
CTGTTTATTG | 0.977 ± 0.027
CTGTTTGGTA | 1 ± 0.055
CTGTTTGTAT | 0.978 ± 0.02
CTGTTTGTGC | 0.975 ± 0.013
CTGTTTTGGT | 1.008 ± 0.0028
